Earlier results as cited in publication PMC2033707.

Biological target: EGF (UniProt P01133)
Sequence of UniProt P01133 (P01133 971-1023): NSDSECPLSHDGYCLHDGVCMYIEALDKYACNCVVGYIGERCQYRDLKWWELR

Kd: 1 nM
Substance: EGFR (from UniProt P00533)
